Assay results taken from PMC8571082.

Legend:
[1] = target: T1, factor inhibiting HIF-1 (FIH-1), full-length (human), Q9NWT6; experiment: SEC; FIH-1 alone, wild type at ~7 μM; profiles of FIH-1 WT and L340R; settings: remark: other sources report otherwise
[2] = target: T1, factor inhibiting HIF-1 (FIH-1), …; experiment: SEC-MALS; FIH-1 alone at 70 μM, 50 μl on Superdex 200 10/300 GL; 35 mM Na-phosphate pH 7.5, 300 mM NaCl, 500 μM αKG; settings: remark: other sources report otherwise

stoichiometry N [1]: 2 | stoichiometry N [2]: 2
B1: factor inhibiting HIF-1 (FIH-1), full-length, Q9NWT6 1-349 (enzyme)
chain: MAATAAEAVASGSGEPREEAGALGPAWDESQLRSYSFPTRPIPRLSQSDPRAEELIENEEPVVLTDTNLVYPALKWDLEYLQENIGNGDFSVYSASTHKFLYYDEKKMANFQNFKPRSNREEMKFHEFVEKLQDIQQRGGEERLYLQQTLNDTVGRKIVMDFLGFNWNWINKQQGKRGWGQLTSNLLLIGMEGNVTPAHYDEQQNFFAQIKGYKRCILFPPDQFECLYPYPVHHPCDRQSQVDFDNPDYERFPNFQNVVGYETVVGPGDVLYIPMYWWHHIESLLNGGITITVNFWYKGAPTPKRIEYPLKAHQKVAIMRNIEKMLGEALGNPQEVGPLLNTMIKGRYN
